Earlier results in article PMC11003968, “Identification of small molecules affecting the interaction between human hemoglobin and Staphylococcus aureus IsdB hemophore” (Scientific Reports, 2024).
pKd: −log10 of the molar value.

Tests used:
[1] = biological target: oxyhemoglobin dimer (Homo sapiens) (UniProt P69905)
[2] = biological target: IsdB (Staphylococcus aureus) (UniProt A7X146); assay: SPR
IsdB (Staphylococcus aureus), sequence (A7X146 41-613): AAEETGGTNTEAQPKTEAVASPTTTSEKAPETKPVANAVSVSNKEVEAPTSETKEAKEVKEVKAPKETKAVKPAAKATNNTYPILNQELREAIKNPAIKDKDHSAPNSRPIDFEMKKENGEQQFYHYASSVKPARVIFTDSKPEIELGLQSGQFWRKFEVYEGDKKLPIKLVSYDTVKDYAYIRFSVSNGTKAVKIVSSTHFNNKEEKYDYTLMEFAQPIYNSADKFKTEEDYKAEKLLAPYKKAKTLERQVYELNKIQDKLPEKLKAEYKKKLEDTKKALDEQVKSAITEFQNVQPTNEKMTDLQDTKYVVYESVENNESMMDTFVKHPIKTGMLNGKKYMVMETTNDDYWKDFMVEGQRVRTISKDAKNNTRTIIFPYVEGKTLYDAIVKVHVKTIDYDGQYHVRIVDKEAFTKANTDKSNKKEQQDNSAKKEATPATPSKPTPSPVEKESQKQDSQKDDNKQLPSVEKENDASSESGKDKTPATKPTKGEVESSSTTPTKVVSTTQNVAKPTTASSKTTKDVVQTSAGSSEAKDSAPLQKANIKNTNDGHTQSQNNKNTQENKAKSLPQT

hemoglobin, sequence (P69905 2-142): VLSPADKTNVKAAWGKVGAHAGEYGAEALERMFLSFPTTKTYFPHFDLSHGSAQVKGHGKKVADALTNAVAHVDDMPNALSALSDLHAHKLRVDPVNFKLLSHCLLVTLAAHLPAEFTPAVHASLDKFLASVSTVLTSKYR
hemoglobin, sequence (P68871 2-147, further chain): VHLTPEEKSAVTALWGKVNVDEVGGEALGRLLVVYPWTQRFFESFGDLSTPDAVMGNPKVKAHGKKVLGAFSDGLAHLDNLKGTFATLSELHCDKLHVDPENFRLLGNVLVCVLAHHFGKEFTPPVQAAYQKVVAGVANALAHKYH
oxyhemoglobin dimer, sequence (P69905 2-142): as the sequence (P69905 2-142) above
oxyhemoglobin dimer, sequence (P68871 2-147, further chain): as the sequence (P68871 2-147, further chain) above

Substance	pKd [1]	pKd [2]
oxyhemoglobin dimer (from UniProt P69905)	6.60	–
hemoglobin (from UniProt P69905)	–	7.46
